Here are results for three molecules from patent publication US20260265354A1 (JIANGSU MABWELL HEALTH PHARMACEUTICAL R AND D, published 2026).

What all share (assay): ELISA, coated antigen, antibody at 10000 ng/ml
Background: An ELISA detects its analyte on a solid surface through an enzyme-linked reagent.

The target of experiment [1] is T1, Nectin-2 (UniProt Q92692 32-360, limits assumed).
T1 construct: Bought recombinant protein; also called CD112; PVRL-2
T1 sequence (looked up): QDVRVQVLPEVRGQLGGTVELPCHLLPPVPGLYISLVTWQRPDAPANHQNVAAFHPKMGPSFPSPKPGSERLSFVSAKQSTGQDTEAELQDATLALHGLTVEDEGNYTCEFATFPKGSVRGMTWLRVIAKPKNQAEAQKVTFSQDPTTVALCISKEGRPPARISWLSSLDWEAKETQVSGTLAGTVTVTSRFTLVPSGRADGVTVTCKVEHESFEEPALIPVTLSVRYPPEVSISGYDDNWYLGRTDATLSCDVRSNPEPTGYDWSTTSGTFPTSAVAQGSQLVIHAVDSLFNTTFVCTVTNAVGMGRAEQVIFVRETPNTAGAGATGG
The procedure: (§1) Coating: Nectin-1, Nectin-2, Nectin-3, Nectin-4, Nectin-like-1, Nectin-like-2, Nectin-like-3, Nectin-like-4, and Nectin-like-5 were diluted to 5 μg/ml in coating buffer (carbonate buffer, pH 9.6) respectively. A 96-well plate was coat with 100 μl per well and incubated overnight at 2-8° C.;
(§2) Sample loading: The plate was taken out, patted dry, and washed twice with 200 μl/well of PBST, then patted dry. The Nectin-4 antibodies prepared in Example 1 (antibody MM11, antibody R012, and antibody R036) were diluted with 1% BSA/PBST to concentrations of 10 μg/ml, 1 μg/ml, 100 ng/ml, and 10 ng/ml, respectively. 1% BSA/PBST solution for dilution was set as a blank control. 100 μl per well was added to the 96-well plate, and incubated at room temperature for 2 hours;
(§3) Reaction termination and plate reading: 100 μl/well of 1 mol/L H3PO4 was added to terminate the reaction and the plated was read. The absorbances of wells in the plate at 450 nm with 650 nm as reference wavelength were read and recorded as OD_{450 nm-650 nm}.

Experiment [2] deals with T2, Nectin-like-4 (UniProt Q8NFZ8 21-324, limits assumed).
T2 construct: Bought recombinant protein; also called CADM4; IgSF4C
T2 sequence (looked up): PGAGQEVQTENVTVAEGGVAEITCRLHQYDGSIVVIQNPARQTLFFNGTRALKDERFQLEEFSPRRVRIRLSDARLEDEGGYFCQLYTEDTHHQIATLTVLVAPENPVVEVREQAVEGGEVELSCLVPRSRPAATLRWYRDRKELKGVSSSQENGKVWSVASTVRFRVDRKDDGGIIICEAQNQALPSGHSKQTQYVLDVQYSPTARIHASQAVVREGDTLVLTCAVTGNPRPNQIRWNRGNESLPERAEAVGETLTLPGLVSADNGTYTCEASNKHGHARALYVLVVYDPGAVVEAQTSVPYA
The procedure: as §1, §2, §3

Experiment [3] has as its target T3, Nectin-1 (UniProt Q15223 31-334, limits assumed).
T3 construct: Bought recombinant protein; also called CD111; PVRL-1
T3 sequence (looked up): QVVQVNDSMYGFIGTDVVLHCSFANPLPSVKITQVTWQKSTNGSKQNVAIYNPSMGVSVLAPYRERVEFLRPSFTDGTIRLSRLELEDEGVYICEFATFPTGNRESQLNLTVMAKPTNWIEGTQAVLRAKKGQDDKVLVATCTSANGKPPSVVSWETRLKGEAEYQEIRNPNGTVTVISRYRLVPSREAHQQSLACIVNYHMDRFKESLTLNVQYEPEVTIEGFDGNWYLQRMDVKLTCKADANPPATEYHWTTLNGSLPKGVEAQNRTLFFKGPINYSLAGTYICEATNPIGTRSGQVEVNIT
The method, then:
as §1, §2, §3

Experiment [4] addresses T4, Nectin-like-3 (UniProt Q8N3J6 25-367, limits assumed).
T4 construct: Bought recombinant protein; also called CADM2; IgSF4D
T4 sequence (looked up): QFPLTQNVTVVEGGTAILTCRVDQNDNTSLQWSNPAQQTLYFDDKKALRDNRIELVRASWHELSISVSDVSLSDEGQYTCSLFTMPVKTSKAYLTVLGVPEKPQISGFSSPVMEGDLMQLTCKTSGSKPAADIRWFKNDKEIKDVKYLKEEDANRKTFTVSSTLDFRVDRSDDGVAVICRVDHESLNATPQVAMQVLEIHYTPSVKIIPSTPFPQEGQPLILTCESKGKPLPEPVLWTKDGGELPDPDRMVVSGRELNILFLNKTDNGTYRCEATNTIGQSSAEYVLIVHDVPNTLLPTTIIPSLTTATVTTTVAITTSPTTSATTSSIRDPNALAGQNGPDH
The procedure:
as §1, §2, §3

Experiment [5] concerns the target T5, Nectin-like-5 (UniProt P15151 21-343).
T5 construct: Bought recombinant protein; also called CD155; PVR
T5 sequence (looked up): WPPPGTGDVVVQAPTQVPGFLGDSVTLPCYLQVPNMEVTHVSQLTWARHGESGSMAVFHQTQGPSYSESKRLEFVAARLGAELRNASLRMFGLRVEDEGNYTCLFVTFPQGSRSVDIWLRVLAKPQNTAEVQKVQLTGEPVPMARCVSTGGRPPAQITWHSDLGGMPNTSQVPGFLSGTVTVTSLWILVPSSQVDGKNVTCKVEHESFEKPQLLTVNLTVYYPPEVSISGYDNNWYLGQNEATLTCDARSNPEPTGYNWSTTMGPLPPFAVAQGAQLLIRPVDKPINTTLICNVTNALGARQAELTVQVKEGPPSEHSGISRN
The method, then:
as §1, §2, §3

Experiment [6] has as its target T6, Nectin-like-1 (UniProt Q8N126 25-330, limits assumed).
T6 construct: Bought recombinant protein; also called CADM3; IgSF4B
T6 sequence (looked up): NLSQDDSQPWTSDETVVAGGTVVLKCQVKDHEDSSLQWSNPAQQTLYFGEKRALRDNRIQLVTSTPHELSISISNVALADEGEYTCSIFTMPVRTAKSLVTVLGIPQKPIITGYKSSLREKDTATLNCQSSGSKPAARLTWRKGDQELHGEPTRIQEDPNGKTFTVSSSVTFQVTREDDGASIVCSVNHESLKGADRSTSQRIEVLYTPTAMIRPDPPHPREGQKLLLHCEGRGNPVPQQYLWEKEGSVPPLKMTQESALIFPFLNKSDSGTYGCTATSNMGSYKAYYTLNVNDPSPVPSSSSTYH
The procedure:
as §1, §2, §3

Changes are numbered by the printed parent chain.

B1: Antibody MM11 (antibody, mouse IgG1, kappa, V domains shown)
VH: DVQLQESGPGLVKPSQSLSLTCSVTGYSITSNFYWNWIRQFPGNRLEWMGYISYDGSNNYNPSLKNRISISRDTSKNQFFLKLNSVTTEDTATYYCVRADYWGQGTLVTVSA
VL: DTVMTQTPLSLPVSLGDQASISCRSSQSLESSDGHAYLNWYLQKPGQSPQLLIYRVSNRFSGVLHRFSGSGSGTDFTLKISRVEAEDLGVYFCLQFTHVPFTFGSGTKLEIKR
notes: Mouse monoclonal antibody from hybridoma; also called Nectin-4 mouse monoclonal antibody MM11; mouse antibody MM11
As to B1, the OD detection value came to 0.017 OD450 nm-650 nm in experiment [1]; 0.009 OD450 nm-650 nm in experiment [2]; 0.012 OD450 nm-650 nm in experiment [3]; 0.032 OD450 nm-650 nm in experiment [4]; 0.008 OD450 nm-650 nm in experiment [5]; 0.012 OD450 nm-650 nm in experiment [6].

B2: Antibody R012 (antibody, V domains shown)
VH: SKSVEESGGRLVTPGTPLTLTCTVSGFSLSTYAMSWVRQAPGKGLEYIGIISGRGTTYYASWLKGRFTISKTSTTVDLKITSPTTEDTATYFCARDAGISDVYTGYFNLWGQGTLVTVSS
VL: QPVLAQLPSASAALGASAKLTCTLSSAHRTYTIAWYQQQQGEAPRYLMMLKSDGSYTKGTGVPDRFSGSSSGADRYLIISSVQAADEADYYCGADDSGGYVFGGGTQLTVTG
notes: Rabbit monoclonal antibody from phage display; also called Nectin-4 rabbit monoclonal antibody R012; rabbit antibody R012
Take B2: the OD detection value worked out at 0.008 OD450 nm-650 nm in experiment [1]; 0.007 OD450 nm-650 nm in experiment [2]; 0.008 OD450 nm-650 nm in experiment [3]; 0.009 OD450 nm-650 nm in experiment [4]; 0.008 OD450 nm-650 nm in experiment [5]; 0.009 OD450 nm-650 nm in experiment [6].

B3: Antibody R036 (antibody, V domains shown)
VH: SQSVEESGGRLVTPGTPLTLTCTVSGFSLSSYAMSWVRQAPGKGLEYIGIIGGRGTTYYAIWAKGRFTISKTSTTVDLKITSPTTEDTATYFCARDAGTTYVGTTYVATGYFNLWGQGTLVTVSS
VL: B2 VL with A5T, L7P, R29K, M49I, K58R, A85D
notes: Rabbit monoclonal antibody from phage display; also called Nectin-4 rabbit monoclonal antibody R036; rabbit antibody R036
Turning to B3, the OD detection value in experiment [1] worked out at 0.007 OD450 nm-650 nm; in experiment [2], 0.006 OD450 nm-650 nm; in experiment [3], 0.006 OD450 nm-650 nm; in experiment [4], 0.008 OD450 nm-650 nm; in experiment [5] it was 0.009 OD450 nm-650 nm; in experiment [6] it was 0.008 OD450 nm-650 nm.
